Legend:
[1] = biological target: T1, FCoV N (Feline infectious peritonitis virus (strain 79-1146), UniProt P25909); test: biolayer interferometry, His-tagged N immobilized on Ni-NTA biosensor; format: binding; details: read-out: Kd ± SD
Source text: biolayer interferometry, His-tagged N immobilized on Ni-NTA biosensor on FCoV N

[2] = biological target: T1, FCoV N; test: filter binding, Lineweaver-Burk secondary plot, N with radiolabeled vRNA […]' NCR
[3] = biological target: T1, FCoV N; test: biolayer interferometry, inhibition of N binding to immobilized biotinylated vRNA […]' NCR
[4] = biological target: T2, FCoV nucleocapsid protein N (Feline alphacoronavirus (FCoV/FIPV) …, UniProt P25909 1-377); test: filter binding; 80 mM NaCl; Filter binding: 40 mM Tris-HCl pH 7.4, 80 mM NaCl (160, 320 in series), 20 mM KCl, 1 mM DTT, room temperature, 30-45 min; BLI: 20 mM Tris-HCl pH 7.4, 80 mM NaCl, 20 mM KCl, 1 mM DTT, room temperature; details: protein: recombinant; tags: C-terminal His (pET-30a(+), NdeI/HindIII); chain copies: 2; label: [alpha-32P]GTP, internal
T2 sequence: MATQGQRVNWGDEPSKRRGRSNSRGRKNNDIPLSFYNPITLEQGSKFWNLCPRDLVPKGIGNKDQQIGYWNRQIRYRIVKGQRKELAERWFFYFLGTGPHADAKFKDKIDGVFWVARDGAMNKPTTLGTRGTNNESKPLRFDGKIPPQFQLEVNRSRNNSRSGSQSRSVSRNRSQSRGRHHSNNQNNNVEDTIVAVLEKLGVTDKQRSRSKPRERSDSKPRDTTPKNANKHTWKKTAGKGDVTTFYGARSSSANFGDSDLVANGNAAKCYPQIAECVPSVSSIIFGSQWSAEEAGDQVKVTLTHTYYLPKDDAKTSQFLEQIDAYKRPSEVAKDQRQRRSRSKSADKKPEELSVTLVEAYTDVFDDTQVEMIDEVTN

[5] = biological target: T2, FCoV nucleocapsid protein N; test: filter binding; 160 mM NaCl; Filter binding: 40 mM Tris-HCl pH 7.4, 80 mM NaCl (160, 320 in series), 20 mM KCl, 1 mM DTT, room temperature, 30-45 min; BLI: 20 mM Tris-HCl pH 7.4, 80 mM NaCl, 20 mM KCl, 1 mM DTT, room temperature; details: protein: recombinant; tags: C-terminal His (pET-30a(+), NdeI/HindIII); chain copies: 2; label: [alpha-32P]GTP, internal
[6] = biological target: T2, FCoV nucleocapsid protein N; test: filter binding; 320 mM NaCl; Filter binding: 40 mM Tris-HCl pH 7.4, 80 mM NaCl (160, 320 in series), 20 mM KCl, 1 mM DTT, room temperature, 30-45 min; BLI: 20 mM Tris-HCl pH 7.4, 80 mM NaCl, 20 mM KCl, 1 mM DTT, room temperature; details: protein: recombinant; tags: C-terminal His (pET-30a(+), NdeI/HindIII); chain copies: 2; label: [alpha-32P]GTP, internal
[7] = biological target: T2, FCoV nucleocapsid protein N; test: BLI; 80 mM NaCl; kass 3.195e5 M-1s-1, kdis 5.931e-3 s-1; Filter binding: 40 mM Tris-HCl pH 7.4, 80 mM NaCl (160, 320 in series), 20 mM KCl, 1 mM DTT, room temperature, 30-45 min; BLI: 20 mM Tris-HCl pH 7.4, 80 mM NaCl, 20 mM KCl, 1 mM DTT, room temperature; details: protein: recombinant; tags: C-terminal His (pET-30a(+), NdeI/HindIII); chain copies: 2

For `O=C(O)c1cccc2c1NC(c1cccc(Br)c1)C1CC=CC21` (stereo not shown) [K31, 4-(3-Bromophenyl)-3a,4,5,9b-tetrahydro-3H-cycloppenta [c] quinoline-6-carboxylix acid], the Kd [1] was 350 ± 17 nM, the Ki [2] was roughly 246 nM and the IC50 [3] was roughly 850 nM.

ACUUUUAAAGUAAAGUGAGUGUAGCGUGGCUAUAAC (ssRNA) [vRNA 5' NCR (36 nt, radiolabeled)] was tested, and the Kd [4] was 29 ± 1.6 nM, the Kd [5] was 30.7 ± 7.5 nM and the Kd [6] was 35 ± 7 nM.

Work on ACUUUUAAAGUAAAGUGAGUGUAGCGUGGCUAUAAC (ssRNA) [vRNA 5' NCR (36 nt, biotinylated)] yielded a Kd [7] of 18 ± 1.8 nM.

Reference: publication PMC10011503, “A novel compound targets the feline infectious peritonitis virus nucleocapsid protein and inhibits viral replication in cell culture” (The Journal of Biological Chemistry, 2023)
